Numbering of substitutions follows the chain as printed.
B1: 14M 18L 31W 73I 117G 72A (protein, listed as Rattus norvegicus)
chain: AFDGTWKVDRNENMEKFLEKMGINVVKRKLWAHDNLKLTITQEGNKFTVKESSNFRNIDVVFELGVDFAYSAIDGTELTGTWTMEGNKLVGKFKRVDNGKELIAVREISGNELIQTGTYEGVEAKRIFKKE
modifications: PEPTIDE (1)...(131) wild-type rat intestinal fatty acid binding protein
B2: 72A 74N (protein, listed as Rattus norvegicus)
chain: B1 chain with M14Y, L18M, W31G, I73A, D74N, G117Y
modifications: PEPTIDE (1)...(131) wild-type rat intestinal fatty acid binding protein
B3: 72T 73I 74A (protein, listed as Rattus norvegicus)
chain: B1 chain with M14Y, L18M, W31G, A72T, D74A, G117Y
modifications: PEPTIDE (1)...(131) wild-type rat intestinal fatty acid binding protein
B4: 18I 31L 73G 72A (protein, listed as Rattus norvegicus)
chain: B1 chain with M14Y, L18I, W31L, I73G, G117Y
modifications: PEPTIDE (1)...(131) wild-type rat intestinal fatty acid binding protein
B5: 18V 31V 73I 72A (protein, listed as Rattus norvegicus)
chain: B1 chain with M14Y, L18V, W31V, G117Y
modifications: PEPTIDE (1)...(131) wild-type rat intestinal fatty acid binding protein
B6: 14L 31W 117V 72A (protein, listed as Rattus norvegicus)
chain: B1 chain with M14L, L18M, I73A, G117V
modifications: PEPTIDE (1)...(131) wild-type rat intestinal fatty acid binding protein
B7: 18I 31L 72A (protein, listed as Rattus norvegicus)
chain: B1 chain with M14Y, L18I, W31L, I73A, G117Y
modifications: PEPTIDE (1)...(131) wild-type rat intestinal fatty acid binding protein
B8: 72T 73G 74I (protein, listed as Rattus norvegicus)
chain: B1 chain with M14Y, L18M, W31G, A72T, I73G, D74I, G117Y
modifications: PEPTIDE (1)...(131) wild-type rat intestinal fatty acid binding protein
B9: 38W 106H 117A 72A (protein, listed as Rattus norvegicus)
chain: B1 chain with M14Y, L18M, W31G, L38W, I73A, R106H, G117A
modifications: PEPTIDE (1)...(131) wild-type rat intestinal fatty acid binding protein
B10: 14R 18L 73L 117D 72A (protein, listed as Rattus norvegicus)
chain: B1 chain with M14R, W31G, I73L, G117D
modifications: PEPTIDE (1)...(131) wild-type rat intestinal fatty acid binding protein
B11: 14L 18L 73W 117S 72A (protein, listed as Rattus norvegicus)
chain: B1 chain with M14L, W31G, I73W, G117S
modifications: PEPTIDE (1)...(131) wild-type rat intestinal fatty acid binding protein
B12: 38H 62W 106V 117A 72A (protein, listed as Rattus norvegicus)
chain: B1 chain with M14Y, L18M, W31G, L38H, F62W, I73A, R106V, G117A
modifications: PEPTIDE (1)...(131) wild-type rat intestinal fatty acid binding protein
B13: 72T 74S (protein, listed as Rattus norvegicus)
chain: B1 chain with M14Y, L18M, W31G, A72T, I73A, D74S, G117Y
modifications: PEPTIDE (1)...(131) wild-type rat intestinal fatty acid binding protein
B14: 18I 55G 73M 72A (protein, listed as Rattus norvegicus)
chain: B1 chain with M14Y, L18I, W31G, F55G, I73M, G117Y
modifications: PEPTIDE (1)...(131) wild-type rat intestinal fatty acid binding protein
B15: 14L 18L 31S 73W 117V 72A (protein, listed as Rattus norvegicus)
chain: B1 chain with M14L, W31S, I73W, G117V
modifications: PEPTIDE (1)...(131) wild-type rat intestinal fatty acid binding protein
B16: 72S 73V 74A (protein, listed as Rattus norvegicus)
chain: B1 chain with M14Y, L18M, W31G, A72S, I73V, D74A, G117Y
modifications: PEPTIDE (1)...(131) wild-type rat intestinal fatty acid binding protein
B17: 72S 74A (protein, listed as Rattus norvegicus)
chain: B1 chain with M14Y, L18M, W31G, A72S, I73A, D74A, G117Y
modifications: PEPTIDE (1)...(131) wild-type rat intestinal fatty acid binding protein
B18: 18I 31Y 72A (protein, listed as Rattus norvegicus)
chain: B1 chain with M14Y, L18I, W31Y, I73A, G117Y
modifications: PEPTIDE (1)...(131) wild-type rat intestinal fatty acid binding protein
B19: 18I 31Y 73G 72A (protein, listed as Rattus norvegicus)
chain: B1 chain with M14Y, L18I, W31Y, I73G, G117Y
modifications: PEPTIDE (1)...(131) wild-type rat intestinal fatty acid binding protein
B20: 14R 18L 31S 73F 117E 72A (protein, listed as Rattus norvegicus)
chain: B1 chain with M14R, W31S, I73F, G117E
modifications: PEPTIDE (1)...(131) wild-type rat intestinal fatty acid binding protein

test: Probe fluorescence ratio response to linolenic acid relative to ADIFAB2; assay type: binding; settings: response relative to ADIFAB2
Outline: (§1)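 Each fatty acid's response was expressed relative to ADIFAB2, the rI-FABP-L72A probe, as ΔR/ΔRreference. ΔR is the change in the background-corrected two-wavelength intensity ratio R=Fλ1/Fλ2 from its analyte-free baseline R0. Emission was read near about 420-480 nm for unbound and about 495-580 nm for FFA-bound probe.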

| Molecule | DR/DR LNA |
| --- | --- |
| B1 | 1.869 |
| B2 | 1.701 |
| B3 | 1.944 |
| B4 | 1.525 |
| B5 | 1.531 |
| B6 | 1.894 |
| B7 | 1.384 |
| B8 | 2.317 |
| B9 | 1.397 |
| B10 | 1.790 |
| B11 | 1.499 |
| B12 | 1.796 |
| B13 | 2.621 |
| B14 | 1.284 |
| B15 | 1.631 |
| B16 | 2.330 |
| B17 | 2.002 |
| B18 | 2.813 |
| B19 | 2.706 |
| B20 | 2.296 |

test: Probe fluorescence ratio response to arachidonic acid relative to ADIFAB2; assay type: binding; settings: arachidonic acid; response relative to ADIFAB2
Outline: as §1

| Molecule | DR/DR AA |
| --- | --- |
| B1 | 2.032 |
| B2 | 1.614 |
| B3 | 2.148 |
| B4 | 0.981 |
| B5 | 0.863 |
| B6 | 1.972 |
| B7 | 1.054 |
| B8 | 2.226 |
| B9 | 1.326 |
| B10 | 1.029 |
| B11 | 1.010 |
| B12 | 2.007 |
| B13 | 2.035 |
| B14 | 0.895 |
| B15 | 1.458 |
| B16 | 2.127 |
| B17 | 1.648 |
| B18 | 2.205 |
| B19 | 1.796 |
| B20 | 1.241 |

test: Probe fluorescence ratio response to oleic acid relative to ADIFAB2; assay type: binding; settings: response relative to ADIFAB2
Outline: as §1

| Molecule | DR/DR OA |
| --- | --- |
| B1 | 1.712 |
| B2 | 1.629 |
| B3 | 1.721 |
| B4 | 0.595 |
| B5 | 0.670 |
| B6 | 1.580 |
| B7 | 0.719 |
| B8 | 2.414 |
| B9 | 0.831 |
| B10 | 0.847 |
| B11 | 0.374 |
| B12 | 1.239 |
| B13 | 2.252 |
| B14 | 0.574 |
| B15 | 1.208 |
| B16 | 2.295 |
| B17 | 1.575 |
| B18 | 2.096 |
| B19 | 1.632 |
| B20 | 1.146 |

test: Probe fluorescence ratio response to linoleic acid relative to ADIFAB2; assay type: binding; settings: response relative to ADIFAB2
Outline: as §1

| Molecule | DR/DR LA |
| --- | --- |
| B1 | 2.034 |
| B2 | 1.681 |
| B3 | 1.795 |
| B4 | 1.146 |
| B5 | 1.151 |
| B6 | 2.027 |
| B7 | 1.198 |
| B8 | 2.577 |
| B9 | 1.248 |
| B10 | 1.766 |
| B11 | 1.385 |
| B12 | 1.337 |
| B13 | 2.469 |
| B14 | 1.127 |
| B15 | 1.569 |
| B16 | 2.397 |
| B17 | 2.037 |
| B18 | 2.790 |
| B19 | 2.559 |
| B20 | 1.947 |

test: Probe fluorescence ratio response to stearic acid relative to ADIFAB2; assay type: binding; settings: response relative to ADIFAB2
Outline: as §1

| Molecule | DR/DR SA |
| --- | --- |
| B1 | 0.487 |
| B2 | 1.299 |
| B3 | 1.359 |
| B4 | 0.267 |
| B5 | 0.311 |
| B6 | 0.742 |
| B7 | 0.305 |
| B8 | 1.755 |
| B9 | 0.071 |
| B10 | 0.213 |
| B11 | −0.005 |
| B12 | 0.947 |
| B13 | 1.779 |
| B14 | 0.360 |
| B15 | 0.329 |
| B16 | 1.572 |
| B17 | 1.114 |
| B18 | 0.994 |
| B19 | 0.860 |
| B20 | 0.378 |

test: Probe fluorescence ratio response to palmitic acid relative to ADIFAB2; assay type: binding; settings: response relative to ADIFAB2
Outline: as §1

| Molecule | DR/DR PA |
| --- | --- |
| B1 | 0.998 |
| B2 | 1.308 |
| B3 | 1.687 |
| B4 | 1.137 |
| B5 | 1.302 |
| B6 | 1.304 |
| B7 | 1.182 |
| B8 | 2.177 |
| B9 | 0.426 |
| B10 | 0.294 |
| B11 | 0.259 |
| B12 | 1.002 |
| B13 | 2.209 |
| B14 | 1.137 |
| B15 | 0.692 |
| B16 | 2.601 |
| B17 | 1.615 |
| B18 | 1.762 |
| B19 | 1.886 |
| B20 | 0.693 |

test: Probe fluorescence ratio response to palmitoleic acid relative to ADIFAB2; assay type: binding; settings: response relative to ADIFAB2
Outline: as §1

| Molecule | DR/DR POA |
| --- | --- |
| B1 | 1.569 |
| B2 | 1.536 |
| B3 | 2.320 |
| B4 | 1.377 |
| B5 | 1.334 |
| B6 | 1.768 |
| B7 | 1.187 |
| B8 | 2.771 |
| B9 | 1.098 |
| B10 | 0.801 |
| B11 | 0.750 |
| B12 | 1.145 |
| B13 | 2.471 |
| B14 | 1.201 |
| B15 | 1.356 |
| B16 | 2.727 |
| B17 | 2.034 |
| B18 | 2.639 |
| B19 | 2.637 |
| B20 | 1.290 |

Source: US20060257938A1, “Method of screening for drugs that block ligand binding to a lipid binding protein” (priority 2005, published 2006)
